Starred links: 1 amine or outer side, 2 acyl side, 3 side chain; linkers in the order of their positions; H or OH if unused. Non-standard residues stand in square brackets, D forms with d. Groups on a side chain read outwards from the residue. No end group written: not given here. *: point of attachment. C20 diacid = O=C(O)CCCCCCCCCCCCCCCCCCC(=O)*; C18 diacid = O=C(O)CCCCCCCCCCCCCCCCC(=O)*; γGlu = O=C(O)[C@H](CCC(=O)[*:2])N[*:1]; αMeF = C[C@](N)(Cc1ccccc1)C(=O)O; AEEA = NCCOCCOCC(=O)O; Aib = CC(C)(N)C(=O)O
B1: Peptide 485 (peptide)
peptide: H[Aib]QGTFTSDVSK[αMeF]LDTK([AEEA-AEEA-γGlu-C20 diacid])RAQDFVQWLL[Aib]E-NH2
modifications: N-terminus assumed
SMILES: CC(C)C[C@H](NC(=O)[C@H](Cc1c[nH]c2ccccc12)NC(=O)[C@H](CCC(N)=O)NC(=O)[C@@H](NC(=O)[C@H](Cc1ccccc1)NC(=O)[C@H](CC(=O)O)NC(=O)[C@H](CCC(N)=O)NC(=O)[C@H](C)NC(=O)[C@H](CCCNC(=N)N)NC(=O)[C@H](CCCCNC(=O)COCCOCCNC(=O)COCCOCCNC(=O)CC[C@H](NC(=O)CCCCCCCCCCCCCCCCCCC(=O)O)C(=O)O)NC(=O)[C@@H](NC(=O)[C@H](CC(=O)O)NC(=O)[C@H](CC(C)C)NC(=O)[C@](C)(Cc1ccccc1)NC(=O)[C@H](CCCCN)NC(=O)[C@H](CO)NC(=O)[C@@H](NC(=O)[C@H](CC(=O)O)NC(=O)[C@H](CO)NC(=O)[C@@H](NC(=O)[C@H](Cc1ccccc1)NC(=O)[C@@H](NC(=O)CNC(=O)[C@H](CCC(N)=O)NC(=O)C(C)(C)NC(=O)[C@@H](N)Cc1c[nH]cn1)[C@@H](C)O)[C@@H](C)O)C(C)C)[C@@H](C)O)C(C)C)C(=O)N[C@@H](CC(C)C)C(=O)NC(C)(C)C(=O)N[C@@H](CCC(=O)O)C(N)=O
B2: Peptide 482 (peptide)
peptide: H[Aib]QGTFTSDVSK[αMeF]LESK([AEEA-AEEA-γGlu-C18 diacid])RAQDFVQWLL[Aib]E-OH
modifications: N-terminus assumed
SMILES: CC(C)C[C@H](NC(=O)[C@H](Cc1c[nH]c2ccccc12)NC(=O)[C@H](CCC(N)=O)NC(=O)[C@@H](NC(=O)[C@H](Cc1ccccc1)NC(=O)[C@H](CC(=O)O)NC(=O)[C@H](CCC(N)=O)NC(=O)[C@H](C)NC(=O)[C@H](CCCNC(=N)N)NC(=O)[C@H](CCCCNC(=O)COCCOCCNC(=O)COCCOCCNC(=O)CC[C@H](NC(=O)CCCCCCCCCCCCCCCCC(=O)O)C(=O)O)NC(=O)[C@H](CO)NC(=O)[C@H](CCC(=O)O)NC(=O)[C@H](CC(C)C)NC(=O)[C@](C)(Cc1ccccc1)NC(=O)[C@H](CCCCN)NC(=O)[C@H](CO)NC(=O)[C@@H](NC(=O)[C@H](CC(=O)O)NC(=O)[C@H](CO)NC(=O)[C@@H](NC(=O)[C@H](Cc1ccccc1)NC(=O)[C@@H](NC(=O)CNC(=O)[C@H](CCC(N)=O)NC(=O)C(C)(C)NC(=O)[C@@H](N)Cc1c[nH]cn1)[C@@H](C)O)[C@@H](C)O)C(C)C)C(C)C)C(=O)N[C@@H](CC(C)C)C(=O)NC(C)(C)C(=O)N[C@@H](CCC(=O)O)C(=O)O
B3: Peptide 481 (peptide)
peptide: H[Aib]QGTFTSDVSK[αMeF]LDTK([AEEA-AEEA-γGlu-C20 diacid])RARDFVQWLLE[Aib]K-NH2
modifications: N-terminus assumed
SMILES: CC(C)C[C@H](NC(=O)[C@H](Cc1c[nH]c2ccccc12)NC(=O)[C@H](CCC(N)=O)NC(=O)[C@@H](NC(=O)[C@H](Cc1ccccc1)NC(=O)[C@H](CC(=O)O)NC(=O)[C@H](CCCNC(=N)N)NC(=O)[C@H](C)NC(=O)[C@H](CCCNC(=N)N)NC(=O)[C@H](CCCCNC(=O)COCCOCCNC(=O)COCCOCCNC(=O)CC[C@H](NC(=O)CCCCCCCCCCCCCCCCCCC(=O)O)C(=O)O)NC(=O)[C@@H](NC(=O)[C@H](CC(=O)O)NC(=O)[C@H](CC(C)C)NC(=O)[C@](C)(Cc1ccccc1)NC(=O)[C@H](CCCCN)NC(=O)[C@H](CO)NC(=O)[C@@H](NC(=O)[C@H](CC(=O)O)NC(=O)[C@H](CO)NC(=O)[C@@H](NC(=O)[C@H](Cc1ccccc1)NC(=O)[C@@H](NC(=O)CNC(=O)[C@H](CCC(N)=O)NC(=O)C(C)(C)NC(=O)[C@@H](N)Cc1c[nH]cn1)[C@@H](C)O)[C@@H](C)O)C(C)C)[C@@H](C)O)C(C)C)C(=O)N[C@@H](CC(C)C)C(=O)N[C@@H](CCC(=O)O)C(=O)NC(C)(C)C(=O)N[C@@H](CCCCN)C(N)=O
B4: Peptide 486 (peptide)
peptide: H[Aib]QGTFTSDVSK[αMeF]LDLK([AEEA-AEEA-γGlu-C20 diacid])RAQDFVRWLL[Aib]E-OH
modifications: N-terminus assumed
SMILES: CC(C)C[C@H](NC(=O)[C@H](CC(=O)O)NC(=O)[C@H](CC(C)C)NC(=O)[C@](C)(Cc1ccccc1)NC(=O)[C@H](CCCCN)NC(=O)[C@H](CO)NC(=O)[C@@H](NC(=O)[C@H](CC(=O)O)NC(=O)[C@H](CO)NC(=O)[C@@H](NC(=O)[C@H](Cc1ccccc1)NC(=O)[C@@H](NC(=O)CNC(=O)[C@H](CCC(N)=O)NC(=O)C(C)(C)NC(=O)[C@@H](N)Cc1c[nH]cn1)[C@@H](C)O)[C@@H](C)O)C(C)C)C(=O)N[C@@H](CCCCNC(=O)COCCOCCNC(=O)COCCOCCNC(=O)CC[C@H](NC(=O)CCCCCCCCCCCCCCCCCCC(=O)O)C(=O)O)C(=O)N[C@@H](CCCNC(=N)N)C(=O)N[C@@H](C)C(=O)N[C@@H](CCC(N)=O)C(=O)N[C@@H](CC(=O)O)C(=O)N[C@@H](Cc1ccccc1)C(=O)N[C@H](C(=O)N[C@@H](CCCNC(=N)N)C(=O)N[C@@H](Cc1c[nH]c2ccccc12)C(=O)N[C@@H](CC(C)C)C(=O)N[C@@H](CC(C)C)C(=O)NC(C)(C)C(=O)N[C@@H](CCC(=O)O)C(=O)O)C(C)C
B5: Peptide 484 (peptide)
peptide: H[Aib]QGTFTSDVSK[αMeF]LDTK([AEEA-AEEA-γGlu-C20 diacid])RAQDFVQWLL[Aib]E-OH
modifications: N-terminus assumed
SMILES: CC(C)C[C@H](NC(=O)[C@H](Cc1c[nH]c2ccccc12)NC(=O)[C@H](CCC(N)=O)NC(=O)[C@@H](NC(=O)[C@H](Cc1ccccc1)NC(=O)[C@H](CC(=O)O)NC(=O)[C@H](CCC(N)=O)NC(=O)[C@H](C)NC(=O)[C@H](CCCNC(=N)N)NC(=O)[C@H](CCCCNC(=O)COCCOCCNC(=O)COCCOCCNC(=O)CC[C@H](NC(=O)CCCCCCCCCCCCCCCCCCC(=O)O)C(=O)O)NC(=O)[C@@H](NC(=O)[C@H](CC(=O)O)NC(=O)[C@H](CC(C)C)NC(=O)[C@](C)(Cc1ccccc1)NC(=O)[C@H](CCCCN)NC(=O)[C@H](CO)NC(=O)[C@@H](NC(=O)[C@H](CC(=O)O)NC(=O)[C@H](CO)NC(=O)[C@@H](NC(=O)[C@H](Cc1ccccc1)NC(=O)[C@@H](NC(=O)CNC(=O)[C@H](CCC(N)=O)NC(=O)C(C)(C)NC(=O)[C@@H](N)Cc1c[nH]cn1)[C@@H](C)O)[C@@H](C)O)C(C)C)[C@@H](C)O)C(C)C)C(=O)N[C@@H](CC(C)C)C(=O)NC(C)(C)C(=O)N[C@@H](CCC(=O)O)C(=O)O
B6: Peptide 488 (peptide)
peptide: H[Aib]QGTFTSDVSK[αMeF]LDTK([AEEA-AEEA-γGlu-C20 diacid])RARDFVQWLL[Aib]TE-OH
modifications: N-terminus assumed
SMILES: CC(C)C[C@H](NC(=O)[C@H](Cc1c[nH]c2ccccc12)NC(=O)[C@H](CCC(N)=O)NC(=O)[C@@H](NC(=O)[C@H](Cc1ccccc1)NC(=O)[C@H](CC(=O)O)NC(=O)[C@H](CCCNC(=N)N)NC(=O)[C@H](C)NC(=O)[C@H](CCCNC(=N)N)NC(=O)[C@H](CCCCNC(=O)COCCOCCNC(=O)COCCOCCNC(=O)CC[C@H](NC(=O)CCCCCCCCCCCCCCCCCCC(=O)O)C(=O)O)NC(=O)[C@@H](NC(=O)[C@H](CC(=O)O)NC(=O)[C@H](CC(C)C)NC(=O)[C@](C)(Cc1ccccc1)NC(=O)[C@H](CCCCN)NC(=O)[C@H](CO)NC(=O)[C@@H](NC(=O)[C@H](CC(=O)O)NC(=O)[C@H](CO)NC(=O)[C@@H](NC(=O)[C@H](Cc1ccccc1)NC(=O)[C@@H](NC(=O)CNC(=O)[C@H](CCC(N)=O)NC(=O)C(C)(C)NC(=O)[C@@H](N)Cc1c[nH]cn1)[C@@H](C)O)[C@@H](C)O)C(C)C)[C@@H](C)O)C(C)C)C(=O)N[C@@H](CC(C)C)C(=O)NC(C)(C)C(=O)N[C@H](C(=O)N[C@@H](CCC(=O)O)C(=O)O)[C@@H](C)O
B7: Peptide 487 (peptide)
peptide: H[Aib]QGTFTSDVSK[αMeF]LDTK([AEEA-AEEA-γGlu-C18 diacid])RARDFVQWLL[Aib]TE-OH
modifications: N-terminus assumed
SMILES: CC(C)C[C@H](NC(=O)[C@H](Cc1c[nH]c2ccccc12)NC(=O)[C@H](CCC(N)=O)NC(=O)[C@@H](NC(=O)[C@H](Cc1ccccc1)NC(=O)[C@H](CC(=O)O)NC(=O)[C@H](CCCNC(=N)N)NC(=O)[C@H](C)NC(=O)[C@H](CCCNC(=N)N)NC(=O)[C@H](CCCCNC(=O)COCCOCCNC(=O)COCCOCCNC(=O)CC[C@H](NC(=O)CCCCCCCCCCCCCCCCC(=O)O)C(=O)O)NC(=O)[C@@H](NC(=O)[C@H](CC(=O)O)NC(=O)[C@H](CC(C)C)NC(=O)[C@](C)(Cc1ccccc1)NC(=O)[C@H](CCCCN)NC(=O)[C@H](CO)NC(=O)[C@@H](NC(=O)[C@H](CC(=O)O)NC(=O)[C@H](CO)NC(=O)[C@@H](NC(=O)[C@H](Cc1ccccc1)NC(=O)[C@@H](NC(=O)CNC(=O)[C@H](CCC(N)=O)NC(=O)C(C)(C)NC(=O)[C@@H](N)Cc1c[nH]cn1)[C@@H](C)O)[C@@H](C)O)C(C)C)[C@@H](C)O)C(C)C)C(=O)N[C@@H](CC(C)C)C(=O)NC(C)(C)C(=O)N[C@H](C(=O)N[C@@H](CCC(=O)O)C(=O)O)[C@@H](C)O

Experiments:
[1] = target: human GLP-1 receptor (hGLP-1R) (human, UniProt P43220 24-463); experiment: cell-based or functional assay
[2] = target: human glucagon receptor (hGCGR) (human, UniProt P47871 26-477); experiment: cell-based or functional assay
Chain of human glucagon receptor (hGCGR) (P47871 26-477): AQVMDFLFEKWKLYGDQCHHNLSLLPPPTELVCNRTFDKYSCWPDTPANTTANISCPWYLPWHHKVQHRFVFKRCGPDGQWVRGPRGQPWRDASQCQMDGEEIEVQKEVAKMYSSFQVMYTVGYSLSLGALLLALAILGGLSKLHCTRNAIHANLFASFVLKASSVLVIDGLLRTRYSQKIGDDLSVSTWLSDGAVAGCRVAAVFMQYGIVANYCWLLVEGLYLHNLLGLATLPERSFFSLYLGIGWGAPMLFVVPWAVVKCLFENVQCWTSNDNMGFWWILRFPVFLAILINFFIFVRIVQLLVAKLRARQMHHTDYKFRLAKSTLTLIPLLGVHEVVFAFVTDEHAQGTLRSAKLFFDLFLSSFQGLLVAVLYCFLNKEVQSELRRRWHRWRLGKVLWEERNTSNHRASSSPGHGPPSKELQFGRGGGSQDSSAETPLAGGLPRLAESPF

| Binder | hGLP-1R EC50 (pM) [1] [pM] | hGluc-R EC50 (pM) [2] [pM] |
| --- | --- | --- |
| B1 | 219 | 90.4 |
| B2 | 190 | 691 |
| B3 | 52.2 | 350 |
| B4 | 420 | 166 |
| B5 | 339 | 169 |
| B6 | 202 | 301 |
| H[Aib]QGTFTSDVSK[αMeF]LDTK([AEEA-AEEA-γGlu-C18 diacid])RAQDFVQWLL[Aib]E-OH [Peptide 483] | 178 | 169 |
| B7 | 65.5 | 164 |
